Experimental findings from paper PMC10529453 (Cell reports, 2023) are described below.

Where two headings read alike, the source gives them in different places.

First the molecules themselves.
B1: 10-nt gap DNA (loading) (mixed)
DNA 1: CGGTATAGGCGATACGAATCTTTTTTTTTTCCGTATAGCCGTAGCGAGCCCGACCATACC
DNA 2: GGTATGGTCGGGCTCGCTACGGCTATACGG
DNA 3: GATTCGTATCGCCTATACCG
modifications: 5' phosphate on primer 2
B2: Rad17 (natural protein, S. cerevisiae)
chain: MRINSELANKFSASTVHLEHITTALSCLTPFGSKDDVLIFIDADGLSFVRENNHVIKIQLLLSRELFMSYSYRNETEDHMKLCVKINHILDSVSVMNRNSDDIVECTLSYDGHGSPFVLIFEDSFISERVEYSTYLIKDFDTNGLELDRERISFEAIIKGEALHSALKDLKEIGCKECYVYAKTEANDENVFALISKSQLGFSKIKLPSNRSILEKLQVFDGDSTTVIDGFAVIGFFDFTSFDKIRKSTKIASKVLFRMDVHGVLSVNILSQTDDVIITDTTRPSNNRPGSIRQLQLPKDYPGIVIEVCMLEKESIDEAAQTEIELLMETNELGNRNSFKKSTIRKRYGTDKGNETSNDNLLQLNGKKIKLPSEEENNKNRESEDEENHCKYPTKDIPIFF
B3: Mec3 (natural protein, S. cerevisiae, UniProt Q02574 1-474, looked up)
chain: MKLKLIVNGCEAPDDYKLLRTTINTVASLRKTAILRFNSERLTIISTPKSSLNSSNNGTILRGDTGQLWCTIPHDVFRLYTVISARELNTITMECNCDSLLSVFKRYDRVMNQGSSSNMTIKLQSMPEWNTNNGTLSGGTAGGVDTTSKPNPICALGITFEEIVHTSGPNDAIVMNGGVDEHNGLPTTVGTGNLLASNKVIMHSFKVPVKLLFRAQDTRIQEPMINYIQLMMYKLPPISGEFGSAFHGFIRRVERYSNVNHIHLMGVKKKEHGNEGDDVELKIIVNELDWHLEICWNGPLDSVIQRQEGLTDNPSQNQHIDTDGRQEEGSLPIIEADKPMSSLYTNTRDREMEENIRYDEDLLRIEDSSIADTRGNIYTADTSGDTEFNDISVMVEKAEQESSSTHEVIIRCKDWKVCSKLYAAFEEVVLAISHDESCVFHCSLDRGSLEDSEDVEKPRERGQIIYYIARSKGL
B4: 10-nt gapped DNA (cryo-EM) (mixed)
DNA 1: CGGTATAGGCGATACGAATCTTTTTTTTTTCCGTATAGCCGTAGCGAGCC
DNA 2: GGCTCGCTACGGCTATACGG
DNA 3: GATTCGTATCGCCTATACCG
B5: 5-nt gapped DNA (cryo-EM) (mixed)
DNA 1: CGGTATAGGCGATACGAATCTTTTTCCGTATAGCCGTAGCGAGCC
DNA 2: GGCTCGCTACGGCTATACGG
DNA 3: GATTCGTATCGCCTATACCG

The target of data set [1] is Rad24-RFC clamp loader;32P-9-1-1 checkpoint clamp (Saccharomyces cerevisiae;Saccharomyces …, UniProt P32641;P40339;P38629;P40348;P38251;Q08949;Q02574;P48581 …, |). In words: magnetic bead clamp loading.
For the data set “Mec3”, the target named is B3. Briefly: cryo-EM structure.
Another data set addresses T1, Ddc1 (S. cerevisiae, UniProt Q08949 1-612).
T1 sequence: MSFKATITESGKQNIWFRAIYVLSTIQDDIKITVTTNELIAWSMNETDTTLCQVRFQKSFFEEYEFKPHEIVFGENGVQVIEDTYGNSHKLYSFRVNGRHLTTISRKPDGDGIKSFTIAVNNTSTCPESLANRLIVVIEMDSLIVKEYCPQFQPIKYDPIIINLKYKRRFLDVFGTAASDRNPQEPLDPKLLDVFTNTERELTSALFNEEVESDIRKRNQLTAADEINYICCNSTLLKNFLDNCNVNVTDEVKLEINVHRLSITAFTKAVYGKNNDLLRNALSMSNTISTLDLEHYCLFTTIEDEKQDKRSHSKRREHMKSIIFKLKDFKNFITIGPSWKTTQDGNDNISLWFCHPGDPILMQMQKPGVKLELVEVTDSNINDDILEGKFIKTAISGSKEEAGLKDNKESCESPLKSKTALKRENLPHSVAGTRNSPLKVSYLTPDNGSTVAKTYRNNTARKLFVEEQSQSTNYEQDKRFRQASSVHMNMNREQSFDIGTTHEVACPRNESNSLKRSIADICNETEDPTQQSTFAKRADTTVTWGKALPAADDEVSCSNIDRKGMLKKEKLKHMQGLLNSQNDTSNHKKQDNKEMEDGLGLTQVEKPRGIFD
In words: cryo-EM structure.

Data set [2] addresses T2, Rad24-RFC clamp loader;9-1-1 checkpoint clamp (Saccharomyces cerevisiae;Saccharomyces …, UniProt P32641;P40339;P38629;P40348;P38251;Q08949;Q02574;P48581 …, |). Briefly: cryo-EM.
For data set [3], the target named is T2, Rad24-RFC clamp loader;9-1-1 checkpoint …. Briefly: cryo-EM. The source holds these as a separate data set.

As to B1, in data set [1], the binding result is “binds”.

B2: the binding result in the data set with Mec3 is listed as “binds”.

Turning to B3, the binding result with Ddc1 is reported as “binds”.

As to B4, in data set [2], the binding result is recorded as “binds”.

With B5, the binding result in data set [3] was “binds”.
